Assay results from the supplement of paper PMC6757056.
± gives the standard deviation of the averaged measurements.

B1: library; a variant is named by its letters at N, in order (parent)
chain: GCUGUCACCGAGAAACUGUGAAGUAUAUCUUAAACCUGGGCACUUAAAAGAUAUAUGGAGUUAGUAGUGCAACCUGCUCGGUCUGAUGAGUCCNNNNNNGGACGAAACAGC

Columns and labels:
cyclic di-GMP [1] = variants of: B1; assay: FACS-Seq fitted mean relative fluorescence mCherry/BFP without ligand (log10 relative fluorescence); HEK293T; ligand: cyclic di-GMP (c-di-GMP-II aptamer); higher = higher reporter protein expression; details: ligand present: no
Summary of the method: (§1)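 After lentiviral transduction, HEK293T library cells bearing an mCherry ribozyme-switch reporter and an EF1α-BFP marker were enriched. They were then held for 48 h with or without ligand and sorted by mCherry/BFP into 6 bins, and each bin's genomic DNA was PCR-amplified, barcoded and MiSeq-sequenced. Fluorescence is expressed as a normalized fitted mean: the normal mean of log10(mCherry/BFP) bin counts, scaled to five spiked-in control ribozymes.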

cyclic di-GMP [2] = variants of: B1; assay: normalized RNA/DNA level without ligand (relative to sTRSVctl = 100) (log10 (% of sTRSVctl)); HEK293T; ligand: cyclic di-GMP (c-di-GMP-II aptamer); higher = less ribozyme self-cleavage, higher mRNA level; details: reporter: mCherry (pCS4076), ligand present: no
Summary of the method: (§2)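 Ribozyme switch library plasmids with mCherry reporters (eGFP in certain ligand experiments) went into HEK293T cells at 4 µg per 6-well well. Where ligand was used, it was applied 1 h before transfection, and total RNA was extracted with EDTA 72 h later for reverse transcription, amplification, barcoding and sequencing. RNA level is the RNA-to-DNA read ratio normalized to a spiked-in non-cleaving sequence or to the leading sequences, then scaled and log-transformed. Scaling was ×100 with log10, the leading set comprised 25 sequences, and the cutoff was ≥100 DNA reads.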

cyclic di-GMP [3] = variants of: B1; assay: FACS-Seq fitted mean relative fluorescence mCherry/BFP with ligand (log10 relative fluorescence); HEK293T; ligand: cyclic di-GMP (c-di-GMP-II aptamer); ligand concentration (+) FACS-Seq: 1 mM; higher = higher reporter protein expression; details: ligand present: yes
Summary of the method: as §1

cyclic di-GMP [4] = variants of: B1; assay: normalized RNA/DNA level with ligand (relative to sTRSVctl = 100) (log10 (% of sTRSVctl)); HEK293T; ligand: cyclic di-GMP (c-di-GMP-II aptamer); ligand concentration (+) RNA-Seq: 1 mM; higher = less ribozyme self-cleavage, higher mRNA level; details: reporter: mCherry (pCS4076), ligand present: yes
Summary of the method: as §2

Variant	FACS-Seq fitted mean (log10) (cyclic di-GMP [1])	normalized RNA/DNA level without ligand (log10) (cyclic di-GMP [2])	FACS-Seq fitted mean (log10) (cyclic di-GMP [3])	normalized RNA/DNA level with ligand (log10) (cyclic di-GMP [4])
GUGGCC	0.168 ± 0.017	1.86 ± 0.033	0.366 ± 0.0082	1.97 ± 0.047
AUACGA	-0.518 ± 0.09	1.46 ± 0.08	-0.228 ± 0.13	1.67 ± 0.14
CUCGGA	-0.14 ± 0.19	1.58 ± 0.076	0.203 ± 0.14	1.81 ± 0.14
CUGAAU	-0.0233 ± 0.075	1.43 ± 0.045	0.269 ± 0.11	1.61 ± 0.075
CUGAAA	-0.638 ± 0.031	1.28 ± 0.097	-0.374 ± 0.059	1.43 ± 0.12
UUAAUG	-0.155 ± 0.022	1.6 ± 0.035	0.183 ± 0.0019	1.79 ± 0.071
GUCUGU	-0.165 ± 0.035	1.66 ± 0.044	0.0419 ± 0.17	1.81 ± 0.069
CUAUAA	-0.473 ± 0.065	1.41 ± 0.079	-0.255 ± 0.021	1.6 ± 0.11
AUCCUG	-0.263 ± 0.061	1.67 ± 0.017	-0.151 ± 0.016	1.78 ± 0.13
AUGGAA	-0.588 ± 0.0092	1.33 ± 0.13	-0.293 ± 0.033	1.53 ± 0.14
AUGGAU	-0.631 ± 0.017	1.51 ± 0.057	-0.404 ± 0.012	1.67 ± 0.12
UUCAAC	-0.163 ± 0.071	1.695 ± 0.004	0.153 ± 0.024	1.82 ± 0.12
UUCAAU	-0.187 ± 0.012	1.71 ± 0.03	0.267 ± 0.037	1.82 ± 0.14
AUGGUA	-0.519 ± 0.1	1.46 ± 0.066	-0.143 ± 0.024	1.65 ± 0.098
AUGGUG	-0.341 ± 0.087	1.56 ± 0.1	-0.113 ± 0.021	1.7 ± 0.094
UUCCGU	0.0201 ± 0.13	1.7 ± 0.02	0.296 ± 0.053	1.83 ± 0.08
CUAGAA	-0.5 ± 0.054	1.38 ± 0.091	-0.134 ± 0.032	1.6 ± 0.1
CUAGAC	-0.239 ± 0.047	1.67 ± 0.053	-0.0103 ± 0.011	1.81 ± 0.093

Variant	FACS-Seq fitted mean (log10) (cyclic di-GMP [1])	normalized RNA/DNA level without ligand (log10) (cyclic di-GMP [2])	FACS-Seq fitted mean (log10) (cyclic di-GMP [3])	normalized RNA/DNA level with ligand (log10) (cyclic di-GMP [4])
CUGUAU	-0.00585 ± 0.097	1.56 ± 0.039	0.2727 ± 0.0019	1.72 ± 0.07
UUGGAA	-0.145 ± 0.025	1.61 ± 0.12	0.122 ± 0.11	1.78 ± 0.081
CUGCGG	0.154 ± 0.06	1.82 ± 0.042	0.241 ± 0.03	1.84 ± 0.087
CUGCGA	-0.33 ± 0.01	1.65 ± 0.024	0.0519 ± 0.0084	1.8 ± 0.095
AUAAUU	-0.558 ± 0.032	1.55 ± 0.027	-0.213 ± 0.038	1.72 ± 0.087
AUAAUA	-0.503 ± 0.0074	1.58 ± 0.0077	-0.158 ± 0.15	1.75 ± 0.092
AUCUGG	-0.899 ± 0.093	1.67 ± 0.058	-0.683 ± 0.046	1.81 ± 0.12
AUCUGC	-0.0609 ± 0.046	1.731 ± 0.0043	0.176 ± 0.085	1.88 ± 0.14
AUCUAC	-0.188 ± 0.047	1.7235 ± 0.00012	0.162 ± 0.094	1.81 ± 0.12
GUAAUG	-0.57 ± 0.093	1.63 ± 0.061	-0.481 ± 0.029	1.75 ± 0.066
UUGAAA	-0.168 ± 0.075	1.607 ± 0.0064	-0.0658 ± 0.065	1.76 ± 0.14
UUGAAG	-0.189 ± 0.02	1.639 ± 0.0094	0.0171 ± 0.037	1.81 ± 0.12
GUAGUA	-0.69 ± 0.1	1.663 ± 0.0053	-0.47 ± 0.075	1.74 ± 0.099
UUGCGU	-0.322 ± 0.017	1.69 ± 0.035	-0.00149 ± 0.0032	1.86 ± 0.084
GUAGAU	-0.404 ± 0.035	1.55 ± 0.057	-0.145 ± 0.055	1.72 ± 0.08
GUAGAG	0.0274 ± 0.11	1.47 ± 0.073	0.252 ± 0.077	1.66 ± 0.12
GUAGAA	-0.503 ± 0.021	1.39 ± 0.081	-0.1892 ± 0.0011	1.63 ± 0.1
CUCUCU	-0.0993 ± 0.11	1.63 ± 0.06	0.163 ± 0.0032	1.79 ± 0.13
